B1: murine anti-Tau hybridoma antibody 17G2.A1 (antibody, V domains shown)
VH: QVQLQQPGAELVGPGSSVKLSCKASGYTFINYWIDWMKQSPGQGLEWIGNIYPSDSESHYNQKFTDKATLTVDISSSTAYLQLSSLTSEDSAVYYCALYSKGYWGQGTSVTVSS
VL: DVLMTQTPLSLPVTLGDQASISCRSSQNIVHTNGNTYLEWYLQKPGQSPKLLIYKLSSRFSGVPDRFSGSGSGTDFTLKISRVEAEDLGVYYCFQGSHLPFTFGGGTKLEIKR
notes: mouse IgG from hybridoma; also called anti-Tau 17G2.A1
B2: chimeric IgG clone 1A5 (antibody, V domains shown)
VH: EVQLQQSGAELVRPGASVKLSCTASGFNIKDSLIHWVKQRPEQGLEWIGWIDPEDGETKYAPKFQDKATKTADTSSNTAYLQLSSLTSEDTAIYYCASGEWDYWGQGTSVTVSS
VL: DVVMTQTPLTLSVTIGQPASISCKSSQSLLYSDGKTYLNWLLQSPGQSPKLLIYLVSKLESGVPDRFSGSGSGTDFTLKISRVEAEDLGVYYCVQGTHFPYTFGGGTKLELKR
notes: mouse-human chimeric IgG from HEK293
B3: chimeric IgG clone 1A1 (antibody, V domains shown)
VH: EVQLQQSGAELVRPGASVRLSCTASGFNIKDSLMHWLKQRPEQGLEWIGWIDPEDGETKYAPKFQDKATITADTSSNTAYLQLSSLTSEDTAIYYCTRRDWEGPWGQGTLVTVSA
VL: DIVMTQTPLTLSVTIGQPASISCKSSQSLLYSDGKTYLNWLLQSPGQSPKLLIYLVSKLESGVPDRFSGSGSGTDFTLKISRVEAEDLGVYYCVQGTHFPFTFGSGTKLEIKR
notes: mouse-human chimeric IgG from HEK293; also called anti-Tau 1A1; anti-Tau^1A1

What was measured:
Peptide_006 = molecular target: T1, Peptide_006 (human); assay: peptide array
T1 peptide: QGGYTMHQDQEGDTD
Method in brief: (§1)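 Overlapping 15-mer peptides (5-aa offset) spanning human 2N4R Tau spotted in triplicate on slides; antibodies bound 2 h at room temperature in 3% BSA-TBST (chimeric IgG 5 μg/mL; mouse IgG 30 μg/mL). Detection 1 h with fluorescent anti-human (568 nm) or anti-mouse (647 nm) secondary; fluorescence imaging aligned to array map.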

Peptide_083 = molecular target: T2, Peptide_083 (human); assay: peptide array
T2 peptide: VSSTGSIDMVDSPQL
Method in brief: as §1

Peptide_061 = molecular target: T3, Peptide_061 (human); assay: peptide array
T3 peptide: PGGGSVQIVYKPVDL
Method in brief: as §1

Peptide_009 = molecular target: T4, Peptide_009 (human); assay: peptide array
T4 peptide: AGLKESPLQTPTEDG
Method in brief: as §1

Peptide_028 = molecular target: T5, Peptide_028 (human); assay: peptide array
T5 peptide: GSDDKKAKGADGKTK
Method in brief: as §1

Peptide_022 = molecular target: T6, Peptide_022 (human); assay: peptide array
T6 peptide: AGIGDTPSLEDEAAG
Method in brief: as §1

Peptide_034 = molecular target: T7, Peptide_034 (human); assay: peptide array
T7 peptide: ANATRIPAKTPPAPK
Method in brief: as §1

Peptide_050 = molecular target: T8, Peptide_050 (human); assay: peptide array
T8 peptide: APVPMPDLKNVKSKI
Method in brief: as §1

Peptide_076 = molecular target: T9, Peptide_076 (human); assay: peptide array
T9 peptide: LTFRENAKAKTDHGA
Method in brief: as §1

Peptide_027 = molecular target: T10, Peptide_027 (human); assay: peptide array
T10 peptide: SKDGTGSDDKKAKGA
Method in brief: as §1

Peptide_046 = molecular target: T11, Peptide_046 (human); assay: peptide array
T11 peptide: VAVVRTPPKSPSSAK
Method in brief: as §1

Peptide_081 = molecular target: T12, Peptide_081 (human); assay: peptide array
T12 peptide: GDTSPRHLSNVSSTG
Method in brief: as §1

Peptide_015 = molecular target: T13, Peptide_015 (human); assay: peptide array
T13 peptide: TAEDVTAPLVDEGAP
Method in brief: as §1

Peptide_026 = molecular target: T14, Peptide_026 (human); assay: peptide array
T14 peptide: RMVSKSKDGTGSDDK
Method in brief: as §1

Peptide_044 = molecular target: T15, Peptide_044 (human); assay: peptide array
T15 peptide: PTPPTREPKKVAVVR
Method in brief: as §1

Peptide_029 = molecular target: T16, Peptide_029 (human); assay: peptide array
T16 peptide: KAKGADGKTKIATPR
Method in brief: as §1

Peptide_010 = molecular target: T17, Peptide_010 (human); assay: peptide array
T17 peptide: SPLQTPTEDGSEEPG
Method in brief: as §1

Peptide_077 = molecular target: T18, Peptide_077 (human); assay: peptide array
T18 peptide: NAKAKTDHGAEIVYK
Method in brief: as §1

Peptide_008 = molecular target: T19, Peptide_008 (human); assay: peptide array
T19 peptide: EGDTDAGLKESPLQT
Method in brief: as §1

Peptide_003 = molecular target: T20, Peptide_003 (human); assay: peptide array
T20 peptide: MEDHAGTYGLGDRKD
Method in brief: as §1

Peptide_075 = molecular target: T21, Peptide_075 (human); assay: peptide array
T21 peptide: IETHKLTFRENAKAK
Method in brief: as §1

Peptide_087 = molecular target: T22, Peptide_087 (human); assay: peptide array
T22 peptide: TLADEVSASLAKQGL
Method in brief: as §1

Peptide_018 = molecular target: T23, Peptide_018 (human); assay: peptide array
T23 peptide: GKQAAAQPHTEIPEG
Method in brief: as §1

Peptide_014 = molecular target: T24, Peptide_014 (human); assay: peptide array
T24 peptide: AKSTPTAEDVTAPLV
Method in brief: as §1

Peptide_017 = molecular target: T25, Peptide_017 (human); assay: peptide array
T25 peptide: DEGAPGKQAAAQPHT
Method in brief: as §1

Peptide_052 = molecular target: T26, Peptide_052 (human); assay: peptide array
T26 peptide: VKSKIGSTENLKHQP
Method in brief: as §1

[1] = molecular target: T27, full-length human Tau (Tau441; 2N4R), recombinant (human, UniProt P10636 1-758); assay: Octet binning on biotin-r-Tau; competitor 1D10
T27 construct: made in E. coli, His6-Smt3 tag removed; biotinylated through amines for Octet and phage work; also called r-Tau; recombinant Tau
T27 sequence (P10636 other isoform, or with tags, fused parts or gaps limits assumed): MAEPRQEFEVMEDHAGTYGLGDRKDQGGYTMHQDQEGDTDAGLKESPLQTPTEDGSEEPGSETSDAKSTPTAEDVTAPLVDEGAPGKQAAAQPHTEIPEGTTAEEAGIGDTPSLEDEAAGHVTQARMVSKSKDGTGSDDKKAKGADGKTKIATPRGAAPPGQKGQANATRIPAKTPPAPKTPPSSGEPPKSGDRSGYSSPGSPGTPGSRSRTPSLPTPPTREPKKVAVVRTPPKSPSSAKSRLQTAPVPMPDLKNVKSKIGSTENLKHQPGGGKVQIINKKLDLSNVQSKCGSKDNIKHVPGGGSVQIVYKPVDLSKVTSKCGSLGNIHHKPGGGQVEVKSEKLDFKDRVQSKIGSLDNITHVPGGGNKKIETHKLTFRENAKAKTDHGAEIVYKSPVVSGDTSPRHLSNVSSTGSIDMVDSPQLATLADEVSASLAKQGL
Protocol: Epitope binning assays were performed using a FortéBio® Octet® RED384 instrument using FortéBio® Streptavidin biosensors. Biotinylated recombinant Tau was diluted to a concentration of 2 μg/mL in kinetic buffer (obtained from FortéBio®) and captured onto individual biosensors for 1 minute. A baseline was then established for 1 minute in kinetic buffer. The loaded biosensors were dipped into 10 μg/mL of the first chimeric IgG antibody until signal saturation, followed by dipping into 1 μg/mL of a second antibody. The binding for the second antibody was normalized to its total binding in the absence of the first antibody.

Row | Binder | binding result (Peptide_006) | binding result (Peptide_083) | binding result (Peptide_061) | binding result (Peptide_009) | binding result (Peptide_028) | binding result (Peptide_022) | binding result (Peptide_034) | binding result (Peptide_050) | binding result (Peptide_076) | binding result (Peptide_027) | binding result (Peptide_046) | binding result (Peptide_081) | binding result (Peptide_015) | binding result (Peptide_026) | binding result (Peptide_044) | binding result (Peptide_029) | binding result (Peptide_010) | binding result (Peptide_077) | binding result (Peptide_008) | binding result (Peptide_003) | other results
1 | B1 | no binding (tested: 30 ug/mL) | no binding (tested: 30 ug/mL) | no binding (tested: 30 ug/mL) | no binding (tested: 30 ug/mL) | no binding (tested: 30 ug/mL) | no binding (tested: 30 ug/mL) | no binding (tested: 30 ug/mL) | no binding (tested: 30 ug/mL) | no binding (tested: 30 ug/mL) | no binding (tested: 30 ug/mL) | no binding (tested: 30 ug/mL) | no binding (tested: 30 ug/mL) | no binding (tested: 30 ug/mL) | no binding (tested: 30 ug/mL) | no binding (tested: 30 ug/mL) | no binding (tested: 30 ug/mL) | no binding (tested: 30 ug/mL) | no binding (tested: 30 ug/mL) | no binding (tested: 30 ug/mL) | no binding (tested: 30 ug/mL) | binding result (Peptide_075): no binding (tested: 30 ug/mL); binding result (Peptide_087): no binding (tested: 30 ug/mL); binding result (Peptide_018): no binding (tested: 30 ug/mL); binding result (Peptide_014): no binding (tested: 30 ug/mL); binding result (Peptide_017): no binding (tested: 30 ug/mL); binding result (Peptide_052): no binding (tested: 30 ug/mL)
2 | B2 | no binding (tested: 5 ug/mL) | no binding (tested: 5 ug/mL) | no binding (tested: 5 ug/mL) | no binding (tested: 5 ug/mL) | no binding (tested: 5 ug/mL) | no binding (tested: 5 ug/mL) | no binding (tested: 5 ug/mL) | no binding (tested: 5 ug/mL) | no binding (tested: 5 ug/mL) | no binding (tested: 5 ug/mL) | no binding (tested: 5 ug/mL) | no binding (tested: 5 ug/mL) | no binding (tested: 5 ug/mL) | no binding (tested: 5 ug/mL) | no binding (tested: 5 ug/mL) | no binding (tested: 5 ug/mL) | no binding (tested: 5 ug/mL) | no binding (tested: 5 ug/mL) | no binding (tested: 5 ug/mL) | no binding (tested: 5 ug/mL) | normalized binding of second antibody [1]: -0.35; binding result (Peptide_075): no binding (tested: 5 ug/mL); binding result (Peptide_087): no binding (tested: 5 ug/mL); binding result (Peptide_018): no binding (tested: 5 ug/mL); binding result (Peptide_014): no binding (tested: 5 ug/mL); binding result (Peptide_017): no binding (tested: 5 ug/mL); binding result (Peptide_052): binds
3 | B3 | no binding (tested: 5 ug/mL) | no binding (tested: 5 ug/mL) | no binding (tested: 5 ug/mL) | no binding (tested: 5 ug/mL) | no binding (tested: 5 ug/mL) | no binding (tested: 5 ug/mL) | no binding (tested: 5 ug/mL) | no binding (tested: 5 ug/mL) | no binding (tested: 5 ug/mL) | no binding (tested: 5 ug/mL) | no binding (tested: 5 ug/mL) | no binding (tested: 5 ug/mL) | no binding (tested: 5 ug/mL) | no binding (tested: 5 ug/mL) | no binding (tested: 5 ug/mL) | no binding (tested: 5 ug/mL) | no binding (tested: 5 ug/mL) | no binding (tested: 5 ug/mL) | no binding (tested: 5 ug/mL) | no binding (tested: 5 ug/mL) | binding result (Peptide_075): no binding (tested: 5 ug/mL); binding result (Peptide_087): no binding (tested: 5 ug/mL); binding result (Peptide_018): no binding (tested: 5 ug/mL); binding result (Peptide_014): no binding (tested: 5 ug/mL); binding result (Peptide_017): no binding (tested: 5 ug/mL); binding result (Peptide_052): binds
